We go through two proteins from publication PMC2637981, “High-Level Production, Solubilization and Purification of Synthetic Human GPCR Chemokine Receptors CCR5, CCR3, CXCR4 and CX3CR1” (PLoS ONE, 2009).

This data set deals with the molecule itself. The data set can be described thus: SEC; Ni2+ column eluate concentrated and run on Superdex 200 10/300 GL in Buffer C (1x PBS, 0.02% FC14); fractions tested by SDS-PAGE and Western blot; monomer, dimer and higher oligomer resolved. Background: Size exclusion chromatography separates by hydrodynamic size, large species first.

B1: Trx-hCX3CR1 (human chemokine receptor CX3CR1 with N-terminal HP-thioredoxin, expressed from pBAD-hCX3CR1) (receptor, UniProt P49238 1-355, looked up)
chain: MDQFPESVTENFEYDDLAEACYIGDIVVFGTVFLSIFYSVIFAIGLVGNLLVVFALTNSKKPKSVTDIYLLNLALSDLLFVATLPFWTHYLINEKGLHNAMCKFTTAFFFIGFFGSIFFITVISIDRYLAIVLAANSMNNRTVQHGVTISLGVWAAAILVAAPQFMFTKQKENECLGDYPEVLQEIWPVLRNVETNFLGFLLPLLIMSYCYFRIIQTLFSCKNHKKAKAIKLILLVVIVFFLFWTPYNVMIFLETLKLYDFFPSCDMRKDLRLALSVTETVAFSHCCLNPLIYAFAGEKFRRYLYHLYGKCLAVLCGRSVHVDFSSSESQRSRHGSVLSSNFTYHTSDGDALLLL
notes: synthetic full-length gene of 1,065 bp; not shown: HP-thioredoxin (E. coli thioredoxin with E32H and Q64H), N-terminal, kept; His6, C-terminal, kept
As for B1, the binding result is “binds”.

B2: Trx-hCCR3 (human chemokine receptor CCR3 with N-terminal HP-thioredoxin, expressed from pBAD-hCCR3) (receptor, UniProt P51677 1-355, looked up)
chain: MTTSLDTVETFGTTSYYDDVGLLCEKADTRALMAQFVPPLYSLVFTVGLLGNVVVVMILIKYRRLRIMTNIYLLNLAISDLLFLVTLPFWIHYVRGHNWVFGHGMCKLLSGFYHTGLYSEIFFIILLTIDRYLAIVHAVFALRARTVTFGVITSIVTWGLAVLAALPEFIFYETEELFEETLCSALYPEDTVYSWRHFHTLRMTIFCLVLPLLVMAICYTGIIKTLLRCPSKKKYKAIRLIFVIMAVFFIFWTPYNVAILLSSYQSILFGNDCERSKHLDLVMLVTEVIAYSHCCMNPVIYAFVGERFRKYLRHFFHRHLLMHLGRYIPFLPSEKLERTSSVSPSTAEPELSIVF
notes: as for B1
With B2, the binding result is given as “binds”.
